# Reference: article PMC4160250 (PLoS ONE, 2014)
# B1: His-tagged DC-UbP (natural protein, human, UniProt Q8WUN7 1-234, looked up)
# chain: MGGCVGAQHDSSGSLNENSEGTGVALGRNQPLKKEKPKWKSDYPMTDGQLRSKRDEFWDTAPAFEGRKEIWDALKAAAHAFESNDHELAQAIIDGANITLPHGALTECYDELGNRYQLPVYCLAPPINMIEEKSDIETLDIPEPPPNSGYECQLRLRLSTGKDLKLVVRSTDTVFHMKRRLHAAEGVEPGSQRWFFSGRPLTDKMKFEELKIPKDYVVQVIVSQPVQNPTPVEN
# notes: DC-UbP / UBTD2, human, full-length; vector pET22b(+); 15N-labelled (M9 medium) in the NMR titrations; also called His6-DC-UbP; full-length DC-UbP; source: E. coli, purified (Ni-NTA, Superdex-75)
# B2: UbE1, recombinant, purified (enzyme, mouse, UniProt Q02053 1-1058, looked up)
# chain: MSSSPLSKKRRVSGPDPKPGSNCSPAQSALSEVSSVPTNGMAKNGSEADIDESLYSRQLYVLGHEAMKMLQTSSVLVSGLRGLGVEIAKNIILGGVKAVTLHDQGTTQWADLSSQFYLREEDIGKNRAEVSQPRLAELNSYVPVTAYTGPLVEDFLSSFQVVVLTNSPLEAQLRVGEFCHSRGIKLVVADTRGLFGQLFCDFGEEMVLTDSNGEQPLSAMVSMVTKDNPGVVTCLDEARHGFETGDFVSFSEVQGMIQLNGCQPMEIKVLGPYTFSICDTSNFSDYIRGGIVSQVKVPKKISFKSLPASLVEPDFVMTDFAKYSRPAQLHIGFQALHQFCALHNQPPRPRNEEDATELVGLAQAVNARSPPSVKQNSLDEDLIRKLAYVAAGDLAPINAFIGGLAAQEVMKACSGKFMPIMQWLYFDALECLPEDKEALTEEKCLPRQNRYDGQVAVFGSDFQEKLSKQKYFLVGAGAIGCELLKNFAMIGLGCGEGGEVVVTDMDTIEKSNLNRQFLFRPWDVTKLKSDTAAAAVRQMNPYIQVTSHQNRVGPDTERIYDDDFFQNLDGVANALDNIDARMYMDRRCVYYRKPLLESGTLGTKGNVQVVIPFLTESYSSSQDPPEKSIPICTLKNFPNAIEHTLQWARDEFEGLFKQPAENVNQYLTDSKFVERTLRLAGTQPLEVLEAVQRSLVLQRPQTWGDCVTWACHHWHTQYCNNIRQLLHNFPPDQLTSSGAPFWSGPKRCPHPLTFDVNNTLHLDYVMAAANLFAQTYGLTGSQDRAAVASLLQSVQVPEFTPKSGVKIHVSDQELQSANASVDDSRLEELKATLPSPDKLPGFKMYPIDFEKDDDSNFHMDFIVAASNLRAENYDISPADRHKSKLIAGKIIPAIATTTAAVVGLVCLELYKVVQGHQQLDSYKNGFLNLALPFFGFSEPLAAPRHQYYNQEWTLWDRFEVQGLQPNGEEMTLKQFLDYFKTEHKLEITMLSQGVSMLYSFFMPAAKLKERLDQPMTEIVSRVSKRKLGRHVRALVLELCCNDESGEDVEVPYVRYTIR
# notes: also called purified UbE1; source: E. coli (vector pET28a), purified
# B3: GST-fused UFD domain of UbE1 (residues 950-1058) (domain or fragment)
# chain: not shown
# notes: UbE1, residues 950-1058 (C-terminal Ub-fold domain, UFD), from the UbE1 that was cloned from a mouse cDNA library; vector pGEX-4T-3; also called GST-UFD; C-terminal Ub-fold domain; source: E. coli, purified
# B4: UbP_C (C-terminal part of DC-UbP, residues 129-234), His-tagged (domain or fragment, human, UniProt Q8WUN7 129-234, looked up)
# chain: MIEEKSDIETLDIPEPPPNSGYECQLRLRLSTGKDLKLVVRSTDTVFHMKRRLHAAEGVEPGSQRWFFSGRPLTDKMKFEELKIPKDYVVQVIVSQPVQNPTPVEN
# notes: 15N-labelled where it is the observed protein of an NMR titration, unlabelled where it is titrated into 15N-UBA1; also called UbL domain of DC-UbP; UbL; source: E. coli, purified (Ni-NTA, Superdex-75)
# Assays:
# Details in all cases: both partners purified
# [1] = target: B2; assay: NMR titration; 15N-labelled DC-UbP (100 uM) titrated stepwise with unlabelled USP5, UbE1, FH or SCCH; 1H-15N HSQC, 20 mM phosphate, 50 mM NaCl, pH 6.5, 298 K
# His-tagged DC-UbP [2] = target: B1; assay: as above
# His-tagged DC-UbP [3] = target: B1; assay: NMR titration; 15N-labelled DC-UbP (20 uM in Fig. S4C) titrated with GST-UFD, up to 5:1; relative peak intensities
# [4] = target: B3; assay: NMR titration; 15N-labelled UbP_N or UbP_C titrated with GST-UFD at a molar ratio of 1:3; peak intensity changes
binder,measurement,setting,value
B1,binding result,[1],binds
B2,mean relative peak intensity of the UBD domain of DC-UbP at 1:1 molar ratio (free DC-UbP = 1),His-tagged DC-UbP [2],0.54
same,mean relative peak intensity of the UbL domain of DC-UbP at 1:1 molar ratio (free DC-UbP = 1),His-tagged DC-UbP [2],0.39
B3,mean relative peak intensity of the UBD domain of DC-UbP at 5:1 molar ratio,His-tagged DC-UbP [3],0.69
same,mean relative peak intensity of the UbL domain of DC-UbP at 5:1 molar ratio,His-tagged DC-UbP [3],0.44
B4,binding result,[4],binds
